Columns and labels:
Musashi-1 (MSI1) [1] = molecular target: T1, Musashi-1 (MSI1) (Mus musculus (mouse), UniProt Q61474 1-362); assay: EMSA; 1 ug protein incomplete shift (two bands), 1.5 ug complete shift of 80 fmol probe; REMSA 1x binding buffer (LightShift kit), 0.125 mg/ml BSA, 80 fmol RNA, 1.5 ug protein, 20 ul, 20 min at RT; native 6% PAGE in 0.5x TBE pH 7.5 at 4 C; protein dialyzed in 20 mM TBE, 5 mM DTT; conditions: protein: recombinant; tags: His tag; label: 3' biotin; single strand
Musashi-1 (MSI1) [2] = molecular target: T1, Musashi-1 (MSI1); assay: competition; free probe restored at 1250x (100 pmol) unlabeled RNA; 1.5 ug protein, 80 fmol labeled N1; REMSA 1x binding buffer (LightShift kit), 0.125 mg/ml BSA, 80 fmol RNA, 1.5 ug protein, 20 ul, 20 min at RT; native 6% PAGE in 0.5x TBE pH 7.5 at 4 C; protein dialyzed in 20 mM TBE, 5 mM DTT; conditions: protein: recombinant; tags: His tag; label: none; single strand

T1 sequence (Q61474 whole entry): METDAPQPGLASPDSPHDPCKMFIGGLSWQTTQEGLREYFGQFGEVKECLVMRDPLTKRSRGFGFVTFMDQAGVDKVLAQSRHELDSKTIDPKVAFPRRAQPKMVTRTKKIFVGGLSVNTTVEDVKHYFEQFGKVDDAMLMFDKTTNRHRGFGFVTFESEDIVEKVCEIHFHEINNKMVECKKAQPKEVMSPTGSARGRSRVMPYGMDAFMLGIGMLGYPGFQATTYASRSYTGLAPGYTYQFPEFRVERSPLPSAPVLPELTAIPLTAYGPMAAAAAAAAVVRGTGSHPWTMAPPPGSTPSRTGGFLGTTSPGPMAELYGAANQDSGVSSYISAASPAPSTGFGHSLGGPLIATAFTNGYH

## GUUUAUAGCUAGAUUAGUUUAGCUGAAAGUUAAGUAGUUUGCAA (ssRNA) [cDio2 3'UTR RNA probe nt 2582-2625]
Musashi-1 (MSI1) [1]
  binding result: binds

## GUUUAUAGCUAGAUUAGUUUAGCUGAAAGUUAAGUAGUUUGCAA (ssRNA) [unlabeled cDio2 3'UTR RNA competitor]
Musashi-1 (MSI1) [2]
  binding result: binds

Reference: PMC11301063, “The Musashi-1–type 2 deiodinase pathway regulates astrocyte proliferation”
